The record followed here is patent publication US12441790B2, “Binding proteins to the human thrombin receptor, PAR4” (MONASH UNIVERSITY, priority 2017, dated 2025).

One test has as its system human whole blood. Description: Human whole blood thrombosis assay. The format is cell-based. Particulars: 10 minute endpoint; 5A.RC3 100 μg/ml, hirudin 800 U/ml. As to the method:
Human whole blood collected in citrate (3.2%) was pre-incubated for 15 min at 37° C. with PE-conjugated anti-CD9 antibody (4 μg/mL) and an anti-fibrin antibody (5 μg/ml), and one of hirudin (800 U/ml), DMSO (1% v/v), PAR-1 antagonist E5555 (1 μM), anti-PAR4 antibody (0.2 mg/ml) or the combination of both PAR inhibitors. Whole blood was re-calcified with 5-7.5 mM CaCl2 (final concentration) to initiate coagulation, and drawn over glass microslides (1×0.1 mm internal diameter) coated with bovine type 1 collagen (250 μg/ml) at a fixed flow rate of 0.06 ml/min, resulting in a wall shear rate of 600 s^−1. Dual colour confocal fluorescence images were recorded at 488 and 561 nm excitation, collected through a 40× water immersion objective. Confocal z-stacks were continuously recorded for 2 min before modified, calcium-free Tyrode's buffer was flowed over the thrombi and z-stacks encompassing the entire height of the thrombus field were recorded over a period of 10 min. Platelet thrombi were defined using anti-CD9-PE and fibrin volume was quantified using average fluorescence of the thrombus field. Data were normalised against the hirudin baseline and expressed as a percentage of the control.
Thrombosis parameters including platelet deposition, thrombin activity, fibrin volume and ratio of fibrin per thrombus were measured in real-time over a period of 10 minutes in a whole blood thrombosis assay as described herein under conditions of coagulation.
Platelet deposition (PE-conjugated anti-CD9), thrombin activity (FRET-based thrombin probe), fibrin volume (Dylight650-conjugated anti-fibrin antibody) and the ratio of fibrin per thrombus at the 10 minute end-point is shown in FIG. 10A by confocal microscopy (to allow for volume measurements to be taken) using a Nikon Air with a 25× lens and 2× digital magnification.
The volume of human thrombi formed after 3 min was quantified by confocal microscopy in an ex vivo human whole blood thrombosis assay.

For test [1], the target named is T1, hPAR4-biotinylated peptide (Homo sapiens, UniProt Q96RI0).
T1 construct: host or cells: synthetic peptide
The test is described as follows: SA chip biotin peptide SPR (Biacore, streptavidin capture). The test is classed as binding. Here is the method: (§1) Biacore analysis was performed on a Biacore T200 using two different methods either an anti-mouse Fc capture approach or using a similar method as described above using the ProteoOn system.
A series S sensor chip SA was conditioned using the manufacturers recommended protocol and immobilised with 1 ug/ml hPAR4-biotinylated peptide on FC2 and hPAR1-biotinylated peptide as a control onto FC1. […] Blank injections of buffer alone were also performed. All injections were performed in duplicate and in a random order. After each capture/injection/dissociation cycle the chip was regenerated with a 30 second injection of 0.1M Glycine pH2.0.
(§2) For the mAb capture method low levels of ligand mAb and analyte hPAR4 were used in an attempt to produce a 1:1 binding interaction, this method has been used successfully to measure kinetics and affinity KD's (Kamat V and Rafique A (2017) Analytical Biochemistry 530:75-86), despite using a whole IgG.
(§3) The kinetics of the binding interaction between the mAbs and hPAR4 was measured using Surface Plasmon Resonance (SPR; Biacore) by two different methods: 1. Anti-mouse Fc mAb capture method and 2. Streptavidin (SA) chip to capture biotinylated peptide. The ka(on) rate and kd(off) rates and KD were measured and fitted to a Langmuir model using the Biacore evaluation software.

Test [2] deals with T2, hPAR4 peptide (Homo sapiens, UniProt Q96RI0).
T2 construct: host or cells: synthetic peptide
The test is described as follows: ELISA of purified mAbs on hPAR4 peptide. The format is binding. Particulars: dilutions of purified mAbs. Here is the method: as §3
The experiment was completed with purified mAbs diluted in PBS instead of hybridoma supernatants.
The reactivity of seven purified anti-hPAR4 mAbs was analysed by ELISA (see Table 4).

The target of test [3] is T2, hPAR4 peptide. The test is described as follows: mAb capture SPR (Biacore, anti-mouse Fc capture). The format is binding. As to the method:
as §1
A series S CM5 sensor chip was activated with standard EDC/NHS amine coupling chemistry using the manufacturers recommended protocol with Goat anti-mouse IgG Fc. Anti-hPAR4 mAbs were captured at 1-2 ug/ml for 2 minutes at 10 ul/minute on flow cell 2 (FC2) and flow cell 1 (FC1) was used as a reference channel. […] Blank injections of buffer alone were also performed. All injections were performed in duplicate and in a random order. After each capture/injection/dissociation cycle the chip was regenerated with a 30 second injection of 0.1M Glycine pH2.0.
as §2, §3

A further test deals with human platelets. The test is described as follows: Functional screen of hybridoma supernatants by platelet aggregation assay. The test is classed as cell-based. Particulars: aggregation as % of control. Here is the method: Platelet aggregation was measured by light transmission aggregometry in a 96-well plate format. Human isolated platelets (2×10^8/ml) were pre-treated for 10 mins at 37° C. with dimethylsulfoxide (DMSO) (1% v/v), the PAR1 antagonist vorapaxar (90 nM), the anti-PAR4 antibody 5RC3 (20-100 μg/ml), or a combination of vorapaxar and 5RC3. Platelets were treated with one of thrombin (0.1 U/ml) and aggregation was analysed at 37° C. in a FLUOstar OPTIMA plate reader (BMG Labtech) using a 595 nm excitation filter, for a period of 50 min (10 read cycles with 5 min double orbital shake period between each read). Optical density was normalised against the blank (maximum) and unstimulated platelets (minimum) and expressed as % maximum.
Thrombin-induced platelet aggregation in the presence of a PAR1 antagonist (i.e. PAR4-dependent aggregation) is shown for 30 monoclonal antibody supernatants binding to human platelets. Antibody supernatant was mixed with human platelets (2×10^8 cells) at a 1:1 ratio.

T2 sequence (Q96RI0 35-54 limits assumed): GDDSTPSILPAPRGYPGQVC
T1 sequence (Q96RI0 with tags, fused parts or gaps limits assumed): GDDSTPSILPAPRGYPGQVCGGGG

For the molecule hirudin [reference compound], in the test with human whole blood, the fibrin volume entry is listed as “abolished”, the platelet deposition entry is recorded as “continued platelet deposition” and the thrombin activity entry is given as “abolished”.

B1: 5I.RG1: anti-PAR4 monoclonal antibody, IgG3/K, SEQ ID NOs 45 and 46 (antibody, V domains shown)
VH: QVQLQQWGAGLLKPSETLSLACAISSGSFSTYFWRWIRQPPGKGLEWIGEIIHTGSTTYNPSLKSRVTISVDTSKNQLSLKLSSVTAADTAVYYCAFEYSSSGGYYYGMDVWGQGTTVTVSS
VL: DIQMTQSPSSLSASVGDRVTITCRASQSISSYLNWYQQIPGKAPNLLIYAASSLRSGVPSRFSGSGSGTDFTLTISSLQPEDFATYYCQQTYSTPLTFGGGTKVEIK
modifications: VH of 5I.RG1; VL of 5I.RG1
In test [1], B1 gave a ka of 1.85e+06 M⁻¹ s⁻¹ and a kd of 0.000667 s⁻¹. The “reactivity with hPAR4 peptide by ELISA” value with hPAR4 peptide [2] is “least reactive”. In the test with hPAR4 peptide [3], this molecule registered a ka of 14000 M⁻¹ s⁻¹ and a kd of 0.00146 s⁻¹.

B2: MoB5I G1: hybridoma supernatant clone, second screening; likely parent of 5I.RG1 (antibody, V domains shown)
VH: QVQLQQWGAGLLKPSETLSLACAISSGSFSTYFWRWIRQPPGKGLEWIGEIIHTGSTTYNPSLKSRVTISVDTSKNQLSLKLSSVTAADTAVYYCAFEYSSSGGYYYGMDVWGQGTTVTVSS
VL: DIQMTQSPSSLSASVGDRVTITCRASQSISSYLNWYQQIPGKAPNLLIYAASSLRSGVPSRFSGSGSGTDFTLTISSLQPEDFATYYCQQTYSTPLTFGGGTKVEIK
Consider B2, for which, in the test with human platelets, the “Functional screen on hybridoma supernatants” value (from here on “Functional screen”) was “Yes (+) (aggregation between 50-80% of control)”.

B3: 5H.RF2: anti-PAR4 monoclonal antibody, IgG2a/K, SEQ ID NOs 107 and 108 (antibody, V domains shown)
VH: QVQLQQWGAGLLKPSETLALTCAVYGGSLSDYYWSWIRQPPGKGLEWIGEINHSGTTNYNPSLKSRVTISVDTSKKQFSLKLSSVTAADTAVYYCAIEYSNSRGYYYGMDVWGQGTTVTVSS
VL: DIQMTQSPSSLSASAGDRITITCRASQTISNYLNWYQQKPGKAPKLLIYAASSLQSGVPSRFSGSGSGTDFTLTISSLQPEDFASYYCRQNYNTPLTFGGGTKVEIK
modifications: VH of 5H.RF2; VL of 5H.RF2
B3: the figures for the ka (in test [1]; in the test with hPAR4 peptide [3]) were 1.84e+06 M⁻¹ s⁻¹ and 58400 M⁻¹ s⁻¹, respectively. The values for the kd (in test [1]; with hPAR4 peptide [3]) were 0.00111 s⁻¹ and 0.00227 s⁻¹, respectively. Besides, the “reactivity with hPAR4 peptide by ELISA” value with hPAR4 peptide [2] is reported as “least reactive”.

B4: MoB5H F2: hybridoma supernatant clone, second screening; likely parent of 5H.RF2 (antibody, V domains shown)
VH: QVQLQQWGAGLLKPSETLALTCAVYGGSLSDYYWSWIRQPPGKGLEWIGEINHSGTTNYNPSLKSRVTISVDTSKKQFSLKLSSVTAADTAVYYCAIEYSNSRGYYYGMDVWGQGTTVTVSS
VL: DIQMTQSPSSLSASAGDRITITCRASQTISNYLNWYQQKPGKAPKLLIYAASSLQSGVPSRFSGSGSGTDFTLTISSLQPEDFASYYCRQNYNTPLTFGGGTKVEIK
Take B4: the “Functional screen” value with human platelets was “no”.

B5: MoB5H H4: hybridoma supernatant clone, second screening; likely parent of 5H.RH4 (antibody, V domains shown)
VH: QVQLQQWGAGLLKPSETLSLTCAVYGGSFSNYYWSWIHQPPGKGLEWIGEINHSGSTNYNPSLKSRVTISVDTSKKQFSLNLSSVTAADTAVYYCKVEHSSSSGHYYYGMDVWGQGTTVTVSS
VL: DIQMTQSPSSLSASVGDRVTITCRASQTISYYLNWYQQKPGKAPKLLIYAASRLQSGVPSRFSGSGSGTDFTLTISSLQPEDFTTYYCQQSYSTPLTFGGGTKVGIK
For B5, the “Functional screen” value with human platelets is “Yes (+) (aggregation between 50-80% of control)”.
